Assay results reported in the supplement of paper PMC7877785.
± gives the uncertainty stated by the source.

Assay: self-splicing fitness, log relative to wild type (ln ratio); higher = more splicing; Tetrahymena group I intron in knt gene, E. coli kanamycin selection, DiMSum; sequences stand for … in CUCUCU…GGAGGGAAAAGUUAUCAGGCAUGCACCUGGUAGCUAGUCUUUAAACCAAUAGAUUGCAUCGGUUUAAAAGGCAAGACCGUCAAAUUGCGGGAAAGGGGUCAACAGCCGUUCAGUACCAAGUCUCAGGGGAAACUUUGAGAUGGCCUUGCAAAGGGUAUGGUAAUAAGCUGACGGACAUGGUCCUAACCACGCAGCCAAGUCCUAAGUCAACAGAUCUUCUGUUGAUAUGGAUGCAGUUCACAGACUAAAUGUCGGUCGGGGAAGAUGUAUUCUUCUCAUAAGAUAUAGUCGGACCUCUCCUUAAUGGGAGCUAGCGGAUGAAGUGAUGCAACACUGGAGCCGCUGGGAACUAAUUUGUAUGCGAAAGUAUAUUGAUUAGUUUUGGAGUACUCGUGGUCG
Summary of the method: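 Pooled colonies went to amplicon sequencing on an Illumina HiSeq 2500 after six replicate transformations. The plates were LB agar with 100 μg/mL carbenicillin, 50 μM IPTG and 0.2% rhamnose, with or without 25 μg/mL kanamycin, incubated overnight at 37°C or 30°C. The E. coli BL21(DE3) library had all eight P1ex-region intron nucleotides randomised, the intron placed in the knt kanamycin-resistance gene on pET-22b(+). DiMSum fitness is the error-weighted combination of replicate fold changes, kanamycin against none, normalised to wild type.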

Sequence | self-splicing fitness (ln) (30 °C) | self-splicing fitness (ln) (37 °C)
GAUAAGCAAUAUUACGACAU | -0.4 ± 0.012 | 0.0172 ± 0.032
GAUAAGCAAUAUUACGACCC | -0.0888 ± 0.28 | -0.582 ± 0.37
GAUAAGCAAUAUUACGACGU | -0.187 ± 0.076 | 0.339 ± 0.091
GAUAAGCAAUAUUACGAGGU | -3.42 ± 0.13 | -2.79 ± 0.13
GAUAAGCAAUAUUACGCAGC | -3.45 ± 0.47 | -0.777 ± 0.29
GAUAAGCAAUAUUACGCCAC | -3.11 ± 0.44 | -2.13 ± 0.36
GAUAAGCAAUAUUACGGAUA | -1.73 ± 0.12 | -1.31 ± 0.15
GAUAAGCAAUAUUACGGCCG | -1.35 ± 0.1 | -0.332 ± 0.15
GAUAAGCAAUAUUACGGCCU | -0.624 ± 0.08 | -0.592 ± 0.11
GAUAAGCAAUAUUACGGUAC | -1.92 ± 0.12 | -0.383 ± 0.17
GAUAAGCAAUAUUACGGUUC | -3.24 ± 0.43 | -2.5 ± 0.31
GAUAAGCAAUAUUACGGUUG | -2.65 ± 0.12 | -1.26 ± 0.11
GAUAAGCAAUAUUACGUCCU | -0.907 ± 0.14 | -0.0126 ± 0.19
GAUAAGCAAUAUUACGUCUA | -1.18 ± 0.075 | -0.275 ± 0.085
GAUAAGCAAUAUUACGUGCC | -0.717 ± 0.1 | -0.548 ± 0.13
GAUAAGCAAUAUUACGUGGG | -3.77 ± 0.23 | -2.27 ± 0.25
GAUAAGCAAUAUUACGUGGU | -4.24 ± 0.19 | -2.35 ± 0.15
GAUCAGCAAUAUUACGAGGA | -1.43 ± 0.13 | -1.85 ± 0.13
GAUCAGCAAUAUUACGAUCG | -1.17 ± 0.096 | 0.0523 ± 0.13
GAUCAGCAAUAUUACGAUUG | -0.607 ± 0.079 | -0.237 ± 0.11
GAUCAGCAAUAUUACGCAAG | -1.99 ± 0.15 | -1.34 ± 0.14
GAUCAGCAAUAUUACGCCUG | -0.866 ± 0.17 | 0.935 ± 0.19
GAUCAGCAAUAUUACGCCUU | -0.124 ± 0.12 | 0.438 ± 0.14
GAUCAGCAAUAUUACGCGAC | -1.63 ± 0.15 | -1.62 ± 0.15
